The record followed here is publication doi:10.1101/2020.01.12.903617, “The peptide sensor motif stabilizes the outward-facing conformation of TmrAB” (bioRxiv, 2020).

No end group written: not given here. fluorescein = fluorescein label attached to the Cys side chain

The target of one assay is T1, TmrAB D125A^TmrB (Thermus thermophilus, UniProt Q72J05 1-600; Q72J04 1-578, D125A).
T1 construct: TmrA, Thermus thermophilus, the chain of TmrAB with the canonical Walker B motif; TmrB, Thermus thermophilus, the chain of TmrAB with the non-canonical Walker B motif; also called D125A^TmrB variant
T1 sequence 1: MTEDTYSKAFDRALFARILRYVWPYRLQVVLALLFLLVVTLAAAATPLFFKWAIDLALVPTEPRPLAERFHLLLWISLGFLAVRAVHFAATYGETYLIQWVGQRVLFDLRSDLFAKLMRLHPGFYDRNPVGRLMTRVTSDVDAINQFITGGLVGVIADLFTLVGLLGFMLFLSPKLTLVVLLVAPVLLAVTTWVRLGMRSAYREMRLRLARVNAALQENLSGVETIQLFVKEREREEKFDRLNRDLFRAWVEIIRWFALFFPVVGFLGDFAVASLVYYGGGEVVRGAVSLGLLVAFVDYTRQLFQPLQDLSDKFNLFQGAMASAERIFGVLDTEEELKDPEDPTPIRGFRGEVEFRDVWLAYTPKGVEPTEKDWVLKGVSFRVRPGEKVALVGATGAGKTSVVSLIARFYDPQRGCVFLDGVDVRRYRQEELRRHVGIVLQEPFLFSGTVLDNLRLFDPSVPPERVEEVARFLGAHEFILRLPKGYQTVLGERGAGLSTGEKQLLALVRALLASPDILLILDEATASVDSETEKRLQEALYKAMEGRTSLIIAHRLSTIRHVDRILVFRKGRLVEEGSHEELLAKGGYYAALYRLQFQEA
T1 sequence 2: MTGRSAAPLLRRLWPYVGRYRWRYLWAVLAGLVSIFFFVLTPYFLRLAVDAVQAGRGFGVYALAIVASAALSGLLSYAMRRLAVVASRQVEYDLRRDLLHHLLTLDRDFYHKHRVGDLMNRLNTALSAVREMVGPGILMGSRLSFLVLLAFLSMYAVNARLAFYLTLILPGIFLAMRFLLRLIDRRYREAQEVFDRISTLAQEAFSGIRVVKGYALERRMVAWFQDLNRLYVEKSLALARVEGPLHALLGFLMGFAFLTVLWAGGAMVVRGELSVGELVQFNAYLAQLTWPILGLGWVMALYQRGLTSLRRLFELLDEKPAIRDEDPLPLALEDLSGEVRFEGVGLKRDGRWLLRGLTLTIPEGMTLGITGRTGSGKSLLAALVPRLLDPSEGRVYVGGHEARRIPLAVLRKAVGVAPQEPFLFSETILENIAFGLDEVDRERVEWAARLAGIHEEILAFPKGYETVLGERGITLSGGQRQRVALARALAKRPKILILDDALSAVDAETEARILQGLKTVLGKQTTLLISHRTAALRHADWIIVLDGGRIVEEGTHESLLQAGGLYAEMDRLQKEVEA
The assay is described as follows: fluorescence polarisation; 1.7 uM TmrAB with 50 nM RRY(C^Fluorescein)KSTEL in SEC buffer (20 mM HEPES, 150 mM NaCl, pH 7, 0.05% ß-DDM), 15 minutes on ice, in the absence or presence of 5 mM ATP and 10 mM MgCl2; read at 25°C (the results say 4°C); signal normalized to WT without ATP. The note with it: both partners purified.

The next assay has as its target T2, TmrAB R136A^TmrA (Thermus thermophilus, UniProt Q72J05 1-600; Q72J04 1-578, R136A).
T2 construct: TmrA, Thermus thermophilus, the chain of TmrAB with the canonical Walker B motif; TmrB, Thermus thermophilus, the chain of TmrAB with the non-canonical Walker B motif
T2 sequence 1: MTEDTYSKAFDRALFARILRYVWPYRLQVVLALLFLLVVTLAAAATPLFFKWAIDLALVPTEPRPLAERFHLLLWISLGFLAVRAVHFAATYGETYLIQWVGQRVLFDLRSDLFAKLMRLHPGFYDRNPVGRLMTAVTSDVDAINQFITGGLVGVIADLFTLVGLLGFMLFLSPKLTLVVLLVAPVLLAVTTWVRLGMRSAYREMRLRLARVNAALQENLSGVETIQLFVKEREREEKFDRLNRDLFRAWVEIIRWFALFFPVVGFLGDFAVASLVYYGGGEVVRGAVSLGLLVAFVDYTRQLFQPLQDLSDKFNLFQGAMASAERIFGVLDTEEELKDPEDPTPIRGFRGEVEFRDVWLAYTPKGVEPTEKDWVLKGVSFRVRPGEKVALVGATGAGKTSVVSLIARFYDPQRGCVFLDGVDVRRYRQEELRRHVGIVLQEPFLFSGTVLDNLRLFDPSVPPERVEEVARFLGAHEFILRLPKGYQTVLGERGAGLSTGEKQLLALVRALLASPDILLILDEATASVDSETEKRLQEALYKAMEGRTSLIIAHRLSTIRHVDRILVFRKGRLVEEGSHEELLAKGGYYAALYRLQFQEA
T2 sequence 2: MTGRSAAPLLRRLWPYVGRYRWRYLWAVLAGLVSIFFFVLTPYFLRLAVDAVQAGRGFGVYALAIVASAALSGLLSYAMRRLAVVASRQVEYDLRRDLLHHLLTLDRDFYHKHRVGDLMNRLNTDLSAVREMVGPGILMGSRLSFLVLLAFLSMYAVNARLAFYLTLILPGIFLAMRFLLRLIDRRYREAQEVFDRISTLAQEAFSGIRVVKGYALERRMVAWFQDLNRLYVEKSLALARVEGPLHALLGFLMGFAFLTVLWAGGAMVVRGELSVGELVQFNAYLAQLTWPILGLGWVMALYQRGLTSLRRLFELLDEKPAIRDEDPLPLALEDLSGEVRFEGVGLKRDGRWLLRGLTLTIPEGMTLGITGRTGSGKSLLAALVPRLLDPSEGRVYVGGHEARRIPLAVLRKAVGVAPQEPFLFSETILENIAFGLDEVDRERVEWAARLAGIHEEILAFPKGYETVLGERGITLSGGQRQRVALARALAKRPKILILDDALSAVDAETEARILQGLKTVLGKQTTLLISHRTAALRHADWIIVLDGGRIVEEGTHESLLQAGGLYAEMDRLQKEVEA
The assay is described as above. The conditions noted are these: both partners purified.

B1: fluorescent transport substrate peptide RRY(C^Fluorescein)KSTEL (peptide)
peptide: RRYC(fluorescein)KSTEL
notes: fluorescein-labelled transport substrate peptide of TmrAB; also called fluorescently-labeled peptide substrate; peptide substrate; source: bought: Genscript
For the molecule B1, the binding result in the assay with TmrAB D125A^TmrB and with TmrAB R136A^TmrA was “binds” throughout.
